The DeepSol protein solubility set

Assay: soluble on expression in E. coli; label from the status in PepcDB or PDB records

Sequence | soluble on expression in E. coli
MSLNTLKEVNKIIQYLNNIHNEPIGNQARVLCGKDAAKHLFLVASGADSLSIGEYEILSQIRSTIDMFKKLGFSGKYLQIFFERAIKVGRKVREETSISKGKVGIYSLAIDEAKKRFNDFYDRRILVIGAGEMAQKITSMLHNEGAKDVTIMNRTIEKAKQLALKFGYNYEKLDLDKLGNFDVAFISIYHENLRLENKWNTLIVDITVPPLFTGNNVITLEELERISNLNFKAREEELAKINKLVEDGINELLYDYKKEIYTEFMSKIMKRIETIRENEILRAYKELEKEGHHHHHH | not soluble
MAKLLYVQTSGIDTPERLYAPFVLAMTAKAMGDDAIIYFVIKGVTVVKKDNAEKIKMGNFPPLSELMKQARESGVEMMVCDRSSELLGIDKGEIVDGVKIVGAATLNQLVLEADGVLYF | not soluble
MSLSFKNVNLIYADIATDSAETPETVLTQDDLEKEFEFWEATSLGLFDYMRKSRSKGFVLSLSGGADSSACAIMVAEMIRKGLKELGLTAFLQKSNMETLFDLPALQHLPFEEQAKKITAVFLTTAYQSTRNSGDETYTSAKTLAESIGATFYNWSVDEEIEQYKATIENVIERPLTWEKDDITLQNIQARGRAPIIWMLTNVKQALLITTSNRSEGDVGYATMDGDTAGGIAPIAGVDKDFIRSWLRWAEKNRNQHGLHIVNKLAPTAELRPSEYTQTDERDLMPYDVLARIERKAIKERLSPVQVYTALLTEGPYTKNEFKYWVKKFFRLWSINQWKRERLAPSFHMDDFNIDPRSWYRFPILSSGFAKELNDLDQEGHHHHHH | not soluble
MAHHHHHHMLAGLLRGIRAATAPQRSRRRFLPRMRQRSSFSAVSSAAMFKNTLTTQRAQKGDYGFNVFHNSNPQHGGSYARHERRMREDEVEDFLKSVKHWRPLHEDVADGDLVDDAQSSSSTSAPAAGPPMPRLARMGEEAIMRTFQFETFREAYLFMGRVWAFCYGSDKYPHVTWEGTALTVYLYSSSFRGLSKREARVAAFLNDQYNMLRKSKWQQRRIVDGIVRQSAVEELLGEEVAAHLAHRETLRTAPLQEVQDGPRSWRSAIGSPLRSPNSGSDGAGSSMGVRES | not soluble
MSLTTATTSQTALRSRKDVPLSDCWDTKSLYASREVWQDELKKVGAEGAPFWPHLSENNFDIKQPSSLRELLTTVFSIERTLDKLYVYAHLTYDEDIANQEAAADLKSITFLLTSFVEEISWIQPALIALPQQVVNMLLASPELQEYHFYLKKLFRLAPHTGTSREEKILASSFPALEVAYKTFSSLTDSEIPFGEAVDSEGKSHPLSHALASLYMQSTDRELRKNTYQKQCQRHHGYRLSLANLLNGKIQAHLFNAKARDYDSCLEAALFQNDISTSVVTTLIDTVKQHTHLITEYFQLKQKALGLSDFHFYDVYAPLVASEASRHYSYQEAVTLICDSLSLLGNDYVETLRKGLTSDGWVDKYENTNKRSGAYSSGCYDSKPYILLNYTGTLYDVSVVAHEGGHSMHSFLSHKHQSYHEAQYPIFLAEIASTLNETLLMEFLLKQAPSKEEKIAILSRSLDTVFATLFRQTLFAAFELEMHSAAEQGLPLTEEFFSQSYEKLQRLFYGDCITFDEHSCIEWARIPHFYYNFYVYQYATGIIASLCFSERILSGEEGAQEAYLTFLRSGGSDFPIEILKKSGLDMTSSAPMLKAFSYIERKLEELASLLEGHHHHHH | soluble
PEQEEEILGSDDDEQEDPNDYCKGGYHLVKIGDLFNGRYHVIRKLGWGHFSTVWLSWDIQGKKFVAMKVVKSAEHYTETALDEIRLLKSVRNSDPNDPNREMVVQLLDDFKISGVNGTHICMVFEVLGHHLLKWIIKSNYQGLPLPCVKKIIQQVLQGLDYLHTKCRIIHTDIKPENILLSVNEQYIRRLAAEATEWQRSGAPPPSGSAVSTAPATAGNFLVNPLEPKNAEKLKVKIADLGNACWVHKHFTEDIQTRQYRSLEVLIGSGYNTPADIWSTACMAFELATGDYLFEPHSGEEYTRDEDHIALIIELLGKVPRKLIVAGKYSKEFFTKKGDLKHITKLKPWGLFEVLVEKYEWSQEEAAGFTDFLLPMLELIPEKRATAAECLRHPWLNS | soluble
MGSDKIHHHHHHMLFDTSPKDNRKDFFDREKEIEKLKGLRAPITLVLGLRRTGKSSIIKIGINELNLPYIYLDLRKFEERNYISYKDFLLELQKEINKLVKRLPSLLKALKNIQGIVIMGNEIKFNWNRKDRLSFANLLESFEQASKDNVIIVLDEAQELVKLRGVNLLPALAYAYDNLKRIKFIMSGSEMGLLYDYLRVEDPESPLFGRAFSTVELKPFSREEAIEFLRRGFQEADIDFKDYEVVYEKIGGIPGWLTYFGFIYLDNKNLDFAINQTLEYAKKLILKEFENFLHGREIARKRYLNIMRTLSKCGKWSDVKRALELEEGIEISDSEIYNYLTQLTKHSWIIKEGEKYCPSEPLISLAFS | not soluble
MSTVQVPKLNTKDLLTLEELTQEEIISLIEFAIYLKKNKQEPLLQGKILGLIFDKHSTRTRVSFEAGMVQLGGHGMFLNGKEMQMGRGETVSDTAKVLSHYIDGIMIRTFSHADVEELAKESSIPVINGLTDDHHPCQALADLMTIYEETNTFKGIKLAYVGDGNNVCHSLLLASAKVGMHMTVATPVGYKPNEEIVKKALAIAKETGAEIEILHNPELAVNEADFIYTDVWMSMGQEGEEEKYTLFQPYQINKELVKHAKQTYHFLHCLPAHREEEVTGEIIDGPQSIVFEQAGNRLHAQKALLVSLFKNVEELS | not soluble
QSAYSRIEAESYSNQSGIQTETCSEGGEDVGFVENGDYTVYNNVDFGDGVGGFQARVASATSGGNIEIRLDSSTGTLIGTCPVAGTGDWQTYTDAKCTVSGVTGKHDVYLVFKGDSGYLFNLNWFTFSE | soluble
MAHHHHHHMGGHGGLNILPQKKWNVYRKDAQYKVHYDEHKIIKEEKDKEIKRKKDEFESTISTLKKNMTKNEDSDNNYNNFYDENGEKKTTTNYCNDHINLFIDEEKELTAKQKKHEEFLIKKGHYIYYDKNFNTQHNSIYDKNKNAQIISDFNKMKLCERDWFLNKKNKNEKTKDNGANFFHIQKDNISEEHNKTENINSDLSLYCNTNNYITHDKKKEKKQMHYHIKKIIKYKQEKDKEKKRKRQGKEKKKPK | not soluble
TAWILMVPIALLYVKNWEEECCKQKKEEFREQFRESIQTLSAILKVGYSVENAIRETWKEICPIYKKKTRIIKEYETMVHQLDLNMTAEEVMKQFADRVKEEDVENFVTVFGAAKRLGGDSIAIIRHAADAIGEKMEVEREIQVMLTSKKLEFKIMCVIPFVIILYMRSAFPEFM | not soluble
MDELSDIGDWSLIQSFLAVAETGSLSAAARQLDRSQPTLGRHVQALEQALGLSLFDRHARGLKLSADGARILPLAQQAHRAMTAISVTAAGQSQSLAGTVRITASVFASHHILPPILADIRAAEPAIELELVPSDTTENLLFRAADIAVRMYRPRQVDIVARHIGDVPLCACAATSYLERKGRPTRAEDLLDFDLVGYDADPIIVKTMQALGWPVTRHSFAMRCDNQSAYWQLIRAGCGIGFGQRSIVAADPLVEVLPFELPVPPLEMWLAAPQAMRLTPRIRRVWDLLAAGLLAAPL | not soluble
MDTNSLLSAGSDMAKAANLSDADIIQLSDAACKQSDQESKIAPAGNKYSVRLTKLMRGFGNMTLNGQKVNYKVYMTEDVNAWAMGNGCVRVYTGLMDLMNDDELRGVIGHEMGHVALGHTKKAMQTAYAVSAARQAAGAAGNSVVASLSASQLGEMTEKFINAQFSQSQETAADDFSFDLLTEKKMNRKGLVTAFQKLAELDGGESSMFSSHPSSPDRAARMEKRLQAGKLEHHHHHH | soluble
MGSDKIHHHHHHMKLLVTGATGKLGTKIVEHLLTKIEAENVIVSVRDPKKANELASRGIEVRHGDFDEPDTLQQAFAGVDRLLIISTDGEEATRIRQHTAAVEAAKAAGVGLIAYTSIANAEASQNFLARTHQVTEQLIRETGIPFLFFRNNWYLENEQSTIDAVRAGQDWLTSAGNGTVGWALQEDYAEAIATVLVDPKPTKSIYELSGPLHTQQDIAEALGQVLGRPVQVKQVDSATYTAIMQQAGVPEFLLPMLQAIQEGIAAGTLAVESQDFEHILDRPPVSLEDGLRQLVQR | not soluble
MPNKRNVELLATLKENLERAQGSFFLVNYQGLPAKETHALRQALKQNGARLFVAKNTLIRLALKELGLPELDGLQGPSAVVFYEDPVAAAKTLVQFAKSNPKGIPQVKSGLLQGQILTAKDVEALAELPTMDELRAELVGVLQAPMAELVGVLGGVARELVGILEAYAEKKAA | soluble
MSLEINKGEGAVLGKEFFCEEEPGYLIEEEEEKELLEFISSGNLEIDRRLEGGIPAGSLCLLEGANDSGKSIFLQQIIWGALNQDKTVLFLTTEKTSKEVLNQMESLKRGISDYFIIGRSKIFEINAGYVEENPRLSESLLQVLLECIQRCEEELVLIDSLTIFAVNASENAVLNFFTECVKLCDRGKTILISVHGYAFSQAVLYRLRSVCSACLELRIEQVGDQWVKTMEIQKLRGARKTTGNLLSFDVDSEFGLKIIPVSKIKAEGHHHHHH | soluble
MSLKYKRIVFKVGTSSITHSDGSLSRGKIQTITCQLAALHHAGHELVLVSSGAVAAGFGALGFKKRPVKIADKQASAAVGQGLLMEEYTANLSSDGIVSAQILLSRADFADKRRYQNAGGALSVLLQRRAVPIINENDTVSVEELKIGDNDTLSAQVAAMIQADLLVLLTDIDGLYTGNPNSNPDAVRLDKIEHINHEIIEMAGGSGSANGTGGMLTKIKAATIAAESGVPVYICSSLKPDALAEAAEHQADGSFFVPRAKGLRTQKQWLAFYSESRGSVYVDEGAEHALSEQGKSLLMSGIAGIEGHFSRMDTVTVYSKATKQPLGKGRVLFGSAAAEDLLKSRKAKGVFIHRDDWISITPEIRLLLTEFEGHHHHHH | soluble
MKPLSSQLNMKINDFYLPLLPVIGTGRLYITSKGHACHAYFREVSGHGIRFTLTYSGYEGRFWISEEQFIQWCQELFPYSESRLIPEDTIKLMILWVMQTALPEGDVSVDDVQFTMLNKDIYPVIENNNGENRLNVIILETTVQSLQYLINDNWQLVPHSNALFFDGYIVPGWTDYPVTELRVGDSLRLYHVDDSQERRCWIVINTPLATVNLSDNNLSVTDVLAADLLSALSNETVMNRIYCAIGTVHIDIHMLRNVKKDDIINSDGYHLFGGCQLIRNNTTIAYGSIVKINEDFYFTVSIVCD | soluble
MSLQTYSSSKRFNINVSQTIGRRIYMEDMVMIKGELFDGIDYIGVFDGHNGKDAAKKAMETFHKLLDEYLIKSDHYLEHLNHICNEIQQLISFTTASGTTASVIIIREDDVIFCYIGDSPIYIKSNEQVKKISIDHNTSNEEEVKRIINCGGSVVDINGTKRVNSKIVLTRSLGDKSLHPPLTNEPTIISIPLNEIDSIIVASDGISSISCELLNELTNPTFGLEQQAVNIRNIAYEKNSPDNISVVVIQITQPIISEGHHHHHH | soluble
MLAAWLGCVLPAGAGLPVETLRVPPGFRVELLTEAMPSAREMALSPAGILYVGSRTGKVYALPLQVPGATVRVVASGLEQPVGVAWRDGSLYVSAVSRVVRLDRIDSRLDDPPVPVVVSDRFPTETHHGWKFIAFGPDGKLYVPVGAPCNVCHRDEDRYANLMRMNADGSSLEVVARGIRNTVGFDWHPVTHELWFTDNGADMMGDDVPDDELNRITAPGQHFGYPFCHAGDVPDPEFGAGHPCSRYVPPVGKLGAHVAALGMRFYTGSNFPQAYRHNLFIAEHGSWNRSSKVGYRVVRVVLDAAGKVVRQEPFVEGWLRGERAWGRPVDVLVAPDGSLLVSDDYAGAVYRVRYTGKLEHHHHHH | soluble
